Data on 17 sequences can be found in the supplement of paper PMC9170038.

In the data set the test system is MS2 coat protein. As to the kind of experiment: apparent KD of MS2 coat protein; higher = weaker reporter binding. The settings on record: Eterna round: R107. Summed up: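 Each design's apparent KD comes from the median of binding-curve fits to its normalised clusters. Those clusters carried RNA switches transcribed on-chip from Illumina sequencing clusters. SNAP-549-labelled MS2 coat protein was titrated onto them in twofold steps (0.7 or 1.5 nM to 3 µM; per step 0.8–1.5 h down to 10–20 min). Conditions were 100 mM Tris-HCl pH 7.5, 80 mM KCl, 4 mM MgCl2, without or with constant ligand.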

Where [1] appears, read: input ligand: theophylline 20 uM.
Where [2] appears, read: input ligand: theophylline 2 mM.
The mark [3] stands for this setting: input ligand: tryptophan 2.4 mM.

In the case of “AAUACCGGAUCGGCCGCCACUGGUUGGCCCUGUGUACAUGAGGAUCACCCAUGUCCAUCCCAGACCAGGACCGGGAUCUUUGUGU [Ingeraza]”, the “apparent KD of MS2 coat protein” value by setting is: (input ligand: arginine 13.2 mM) 15.6 nM; under setting [1], 20 nM; under setting [2], 18.5 nM.

Turning to “AAUAGACAUGAGGAUCACCCAUGUAUGGAAGGAGCGGUGAAUAAGCCAGGUAGGUCGCCAGUGUGAGGGUUAUCUAUGUAAUAAA [#19 Exclusion - Arginine A]”, the “apparent KD of MS2 coat protein” value is 27.4 nM (input ligand: arginine 13.2 mM); 38.4 nM (input ligand: none); 41.6 nM under setting [1]; 35.7 nM under setting [2]; 40.8 nM under setting [3].

For “ACGUCAUGGAGAACGUGACGACUUGUCGAUACCAGUGUUUGAUAGCGCCCUUGGCAGCGAACAUGAGGAUCACCCAUGUCAAGGG [#11 SameState-TheophyllineA]”, the “apparent KD of MS2 coat protein” value (input ligand: arginine 13.2 mM) was 51.7 nM; the “apparent KD of MS2 coat protein” value (input ligand: none) turned out to be 72.8 nM; the “apparent KD of MS2 coat protein” value under setting [1] came to 84.6 nM; the “apparent KD of MS2 coat protein” value under setting [2] was 88.9 nM; the “apparent KD of MS2 coat protein” value under setting [3] amounted to 66.4 nM.

As for “UGUAUGUGAUCUGAUACCAGCUAGCGGAAACGCAAAAGCUUGAGGAUCACCCAAGUGGAAAGCCCUUGGCAGCAGAUCGCAUACU [Denovo 1 #StaticStem #AlternativeMS2]”, the “apparent KD of MS2 coat protein” value by setting is: (input ligand: arginine 13.2 mM) 17.5 nM; (input ligand: none) 15.1 nM; under setting [1], 14.7 nM; under setting [2], 9.89 nM; under setting [3], 17.4 nM.

In the case of “CCCAGUUAGAUCAAAGGAAUUAUACUCGAAGGAGCGUCAUAGUAGGCAGGUAGGUCGCGAGACAUGAGGAUCACCCAUGUAGAGA [azqmullin]”, the “apparent KD of MS2 coat protein” value by setting is: (input ligand: arginine 13.2 mM) 30.3 nM; (input ligand: none) 37.9 nM; under setting [1], 51.2 nM; under setting [2], 41 nM; under setting [3], 37.8 nM.

Turning to “GGUUGGUGUAGAGAUAUAUUGAUUACUGAAGGAGCGGGAACAAACCCAGGUAGGUCGCAGAGAUCCACAUGAGGAUCACCCAUGU [!0.N]”, the “apparent KD of MS2 coat protein” value reads like this: (input ligand: arginine 13.2 mM) 35.2 nM; (input ligand: none) 31.6 nM; under setting [1], 58.3 nM; under setting [2], 39.3 nM; under setting [3], 41.5 nM.

With “AUUGUGAAGUCGGCCGCCACUGCAUAGUUUAACCACAUGUAACAUGAGGAUCACCCAUGUAAUGACAGGACCGGGACAAUAGUAA [JR_SSTryptoB_Sub023]”, the “apparent KD of MS2 coat protein” value turned out to be 22.2 nM (input ligand: arginine 13.2 mM), 41.9 nM under setting [1] and 29.9 nM under setting [2].

Turning to “AUUAAGGAUAUGUAGACGGCGGAGAAGAGACGAGGACCGGUACGGCCGCCACUCGUGUUAGUUAACAUGAGGAUCACCCAUGUAA [#07 Tryptophan A Same State]”, the “apparent KD of MS2 coat protein” value (input ligand: arginine 13.2 mM) is 51.3 nM, the “apparent KD of MS2 coat protein” value under setting [1] stood at 56.1 nM and the “apparent KD of MS2 coat protein” value under setting [2] was 69.6 nM.

Consider “GUAAAGUAAAGAAGGAGCGUCGAAAAUGGGUAAACAUGAGGAUCACCCAUGUAAAGGGAACGACAGGUAGGUCGCUUUAUUUUAC [AstromonsSSArgB#17]”, for which the “apparent KD of MS2 coat protein” value runs as follows: (input ligand: arginine 13.2 mM) 86.7 nM; (input ligand: none) 199 nM; under setting [1], 223 nM; under setting [2], 284 nM; under setting [3], 189 nM.

In the case of “UGCCGAGACGUGGAUUACCCAUGUACAGAAGGAGCGCCCGAAAGGGCAGGUAGGUCGCUGAGGACAUGAGGAUCACCCAUGUCGA”, the “apparent KD of MS2 coat protein” value was found to be 36.6 nM (input ligand: arginine 13.2 mM); 54.8 nM (input ligand: none); 52 nM under setting [1]; 49.5 nM under setting [2]; 43.3 nM under setting [3].

In the case of “UUUGCACAUGAGGAUCACCCAUGUACAGAUACCAGCCUCAUCUACGGCCCUUGGCAGCUGAGAUAAUGGUGACGUGAUGGGCUUU [Edaniser]”, the “apparent KD of MS2 coat protein” value (input ligand: arginine 13.2 mM) is 13.5 nM, the “apparent KD of MS2 coat protein” value under setting [1] is 17.2 nM and the “apparent KD of MS2 coat protein” value under setting [3] came out at 11.6 nM.

With “GGCACAUAGUCGGCCGCCACUACUAACACCUCAGACAACAUGAGGAUCACCCAUGUUCCAGAGUGUAGGACCGGGACUAUGUGCC [Minonka]”, the “apparent KD of MS2 coat protein” value worked out at 11.7 nM (input ligand: arginine 13.2 mM), 13.7 nM under setting [1] and 12.2 nM under setting [2].

“ACCUGUACGAAAAGUGCAGGACAUGAAUAACGAGGACCGGUACGGCCGCCACUCGGGUAAUAACCUGAGGAUCACCCGGGUCAUG [TrypAS 6 #AlternativeMS2 #Zipper #StaticStem]”: the “apparent KD of MS2 coat protein” value by setting is: (input ligand: arginine 13.2 mM) 111 nM; (input ligand: none) 218 nM; under setting [1], 211 nM; under setting [2], 249 nM; under setting [3], 27.5 nM.

Consider “GGGAGGGAGGCGGCCGCCACUGAUUUUCAUAUAUAUAUAACAUGAGGAUCACCCAUGUAGAUAUACAGGACCGGGCCUUUUUUUU [aaaG]”, for which the “apparent KD of MS2 coat protein” value (input ligand: arginine 13.2 mM) was 14.6 nM, the “apparent KD of MS2 coat protein” value under setting [1] was determined as 33.8 nM and the “apparent KD of MS2 coat protein” value under setting [2] was determined as 22.8 nM.

In the case of “GGGCCUAUAAGCAGGCCCACAGCGGGUGAUACCAGCAAUAAAACUUGCCCUUGGCAGCACACAGCUACAUGAGGAUCACCCAUGU [Beator]”, the “apparent KD of MS2 coat protein” value (input ligand: arginine 13.2 mM) worked out at 41.1 nM; the “apparent KD of MS2 coat protein” value (input ligand: none) was 45.1 nM; the “apparent KD of MS2 coat protein” value under setting [1] was determined as 72.9 nM; the “apparent KD of MS2 coat protein” value under setting [2] turned out to be 70.6 nM; the “apparent KD of MS2 coat protein” value under setting [3] came to 62.4 nM.

Take “GAAGGAACCGGAAGGAGCGGGUCCUUAGCCACUACAUGAGGAUCACCCAUGUCCGGGAGGUCCCAGGUAGGUCGCCGGUCUUAAA [Gelece]”: the “apparent KD of MS2 coat protein” value reads like this: (input ligand: arginine 13.2 mM) 63.9 nM; (input ligand: none) 277 nM; under setting [1], 324 nM; under setting [2], 934 nM; under setting [3], 267 nM.

With “UCGUGUGUUUCGGAUACCAGUGAAAUCGAUACAUGAGGAUCACCCAUGUGAGAGGAUGUACACCCUUGGCAGCUGUCUGUAUCGG [asczmullin]”, the “apparent KD of MS2 coat protein” value (input ligand: arginine 13.2 mM) turned out to be 40.6 nM; the “apparent KD of MS2 coat protein” value (input ligand: none) turned out to be 54.2 nM; the “apparent KD of MS2 coat protein” value under setting [1] turned out to be 58.6 nM; the “apparent KD of MS2 coat protein” value under setting [2] was 43.8 nM; the “apparent KD of MS2 coat protein” value under setting [3] amounted to 43 nM.
